Biological target: PfHsp90 (Plasmodium falciparum (endogenous in strain 3D7)) (UniProt Q8IC05)

Q: For precursor PfHsp60 (natural protein), which decrease in signal of the precursor PfHsp60 spot in the PfHsp60 immunoprecipitate of 35S-labelled parasites treated with 5 uM Geldanamycin against DMSO (2DGE, phosphorimaging) is on record?
A: 80%

From article PMC4552884
